± gives the uncertainty stated by the source.

The first data set can be described thus: amyloid nucleation score (Sup35N fusion, yeast selection) (log enrichment); library NNK2; higher = more nucleation; inactive = no reads after selection. In outline:
(§1)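 Psi-negative yeast expressed Sup35N fused to peptides of 20 random codons. They were induced 24 hours with 100 μM copper sulfate, grown 7 days at 30°C without adenine and uracil, and their plasmid inserts from input and output were Illumina-sequenced. The nucleation score is the DiMSum log enrichment of output over input reads, centred on the mode score of non-aggregating sequences. Sequences with under 100 input reads were excluded.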
KYMRLSLEDYNC displayed an amyloid nucleation score of 0.533 ± 0.39.
The same measure, in the same setting: to LSSVMN belongs -0.565 ± 0.33.
On the same count and under the same terms, to TLIAYCLL belongs 7.492 ± 0.046; to RRSTWSISLS, -0.916 ± 0.45; to YVGEKRGSVSEYLLHLLSTG, “inactive”.
On the same count and under the same terms, to TCLAESGVAMSVS belongs 0.151 ± 0.29; to WYERVWLAWSR, 0.66 ± 0.57; to FWRLWIVCIPLVYLRR, 0.131 ± 1.
HGVMKISTCYFGGKESYYVE: the amyloid nucleation score is -0.206 ± 0.76.
Same read-out and setting: to CSVCYFPEGNLFNGE belongs “inactive”.
The same measure, in the same setting: to RLSGRVTCSVNVGHSLKGTV belongs 4.529 ± 0.045; to VRLRTHMFY, -0.831 ± 0.76; to KKQSRIHLSTSKNRFTWNTW, 0.007 ± 0.35.
TYGCLFDSSIMSFQLSLDNF: the amyloid nucleation score is -0.28 ± 0.49.
Still for that read-out and setting: to LISVSTRKCVIIG belongs -0.326 ± 0.45; to KSMEGSNVMSRRYNWPWKDS, 0.062 ± 0.63.
Turning to AIMGHGLPYGTGLMEVGGAK, the amyloid nucleation score was 5.13 ± 0.084.
The same measure, in the same setting: to NRISGLGMSSKGKRGKVMLK belongs 0.493 ± 0.46.
Still for that read-out and setting: to VYLCARKGM belongs -0.287 ± 0.79; to ILFWFRT, 4.9 ± 0.043.
Regarding GADGTSVLDFCDSVTV, the amyloid nucleation score is -1.32 ± 0.44.
Still for that read-out and setting: to VEVGLIVGSCSILI belongs -0.525 ± 0.64; to PDLRKDYAWLLLFLVRVRGD, 4.43 ± 0.085; to RWCSSYRYIHSGGRNASGSF, -0.108 ± 0.8.
EADELGLLVSIKCRAARRCW: the amyloid nucleation score amounted to 5.743 ± 0.052.
Same read-out and setting: to VICNLDCLEVEGGILDQ belongs -1.04 ± 1.1.
The same measure, in the same setting: to GQCPIHMCGRNTYMK belongs 0.05 ± 0.32; to YSYRVRI, 3.71 ± 0.056; to AWGGSRNRMYFYHSPVRFFE, 4.5 ± 0.088.
On the same count and under the same terms, to RSIWMKLCMWIECSDKETRF belongs 4.17 ± 0.13; to YGKGDLGRCSLDTSTTLSDW, 0.252 ± 0.65; to TSSQTHSR, -0.03 ± 0.63.
Turning to IQDWHVES, the amyloid nucleation score is -0.075 ± 0.46.
The same measure, in the same setting: to YAPRCNPNRNLLNMT belongs 4.47 ± 0.058.

A short description of the next data set: amyloid nucleation score (Sup35N fusion, yeast selection) (log enrichment); library NNK3; higher = more nucleation; inactive = no reads after selection. In short, it runs like this: as §1
LPTSQA: the amyloid nucleation score result is “inactive”.
Same read-out and setting: to CVWLVVTSDFLFRQLL belongs 1.73 ± 0.11; to SCYFGILQWSQSPYFHCPFT, “inactive”; to IFLGYRNYDYFSFTVLVE, “inactive”.
Same read-out and setting: to YKSDSLLRSSLLTELTPIHF belongs “inactive”; to FDVVWL, “inactive”.
Take GWGPGARGGLEDRGDCVCFL: the amyloid nucleation score result was “inactive”.
Still for that read-out and setting: to YLNVVWYGALTWSDARFRNL belongs “inactive”.
The same measure, in the same setting: to ARWGDSLSRDLTSGYLFGVG belongs “inactive”; to LVWRTSINSLRMVEDNRDEV, “inactive”; to RSKNWAVIMIGR, “inactive”.
Turning to ILFIDSSFLIVR, the amyloid nucleation score entry is “inactive”.
Take YFCSCFRFSLNN: the amyloid nucleation score worked out at 2.8 ± 0.062.
Still for that read-out and setting: to DNVNYPPVSYQTAG belongs “inactive”; to YGVSMVVENYL, “inactive”; to RDVTC, “inactive”.
Same read-out and setting: to FNRKCVSVCRVRGGICWRSQ belongs “inactive”; to NFIQVMAIIGLFAVHRGCVT, 0.758 ± 0.14; to VVDYTARWHRSYSSNGQRRM, “inactive”.
On the same count and under the same terms, to SSLLKFDFPVLPCHDLRLAL belongs “inactive”; to RNLYSIRANMWLNRQLRKYS, “inactive”.
For CFSAASTVKNMIEGCCRGMY, the amyloid nucleation score entry is “inactive”.
On the same count and under the same terms, to LFMCIAMM belongs 0.284 ± 0.46; to NDKVYRVGRTNLYNV, “inactive”.
Consider MWSDLGV, for which the amyloid nucleation score was -0.173 ± 0.87.
The same measure, in the same setting: to LILGTNYQIY belongs 1.27 ± 0.17; to IYIRVRMDEFLMSVTTIARG, “inactive”.
LMVMGVSSCLTFAIDILRNM: the amyloid nucleation score came to 1.13 ± 0.16.
The same measure, in the same setting: to TLLPLQMFTNHWALMPSSHR belongs 0.125 ± 0.9.
On the same count and under the same terms, to TEFKAFHNCQINRSDTTLWL belongs 0.096 ± 0.68; to HKWAI, “inactive”.
Same read-out and setting: to VTSVHTALFSLQNDWNNKGD belongs “inactive”.
Turning to NGWCHYWVWASIYDPNEISA, the amyloid nucleation score entry was “inactive”.
On the same count and under the same terms, to NLKSWFFCIVHCIRLHASVN belongs “inactive”; to RQISLYFSFNRFSMYFTLNL, “inactive”.
On the same count and under the same terms, to GRKDAKR belongs “inactive”; to IWWNHCEHHMLRSSLRVRAY, “inactive”.
On the same count and under the same terms, to RDMPLMGVYKIPVDAFYSVS belongs “inactive”.
Take NMDSVV: the amyloid nucleation score entry was “inactive”.
In the case of HCLLCNYRLWSACKCPGYVS, the amyloid nucleation score entry is “inactive”.
Same read-out and setting: to MINSHDL belongs “inactive”; to CAHKSGQACKHGVF, 0.533 ± 0.4; to KYKVDIMLRIARSTVFSDSF, “inactive”.
On the same count and under the same terms, to IIWREVINVAVYRVVAVTHK belongs “inactive”.
Same read-out and setting: to VVLGADGRLPF belongs “inactive”; to RVMSWMILNKYVKIPYCRHR, “inactive”.
As to SLYMTVGESVPSMSASMYFG, the amyloid nucleation score result is “inactive”.
On the same count and under the same terms, to CQLGSSLGDDTEGSVAIPAV belongs “inactive”; to TVVDLVIFG, “inactive”; to PIRSNVAMIPDD, “inactive”.
Same read-out and setting: to VHYIVNYRGRILV belongs “inactive”; to CSNGFLFTVRVDTGFPTRI, “inactive”.
Same read-out and setting: to ICSMYTTVSRNTEL belongs “inactive”; to FCYSDFIPLWIR, “inactive”.
Turning to DIVLFLG, the amyloid nucleation score result was “inactive”.
Same read-out and setting: to VPTVRLTSSSFL belongs “inactive”; to KGSTLVMLP, “inactive”; to RYIYPVDLYIWYNYGILLNR, 0.777 ± 0.23.
Still for that read-out and setting: to LYTGYVLAIMYWAVLARENT belongs -1.45 ± 2.5; to FYMLMISSQYFVTRLAPYFP, -0.015 ± 0.87.
Still for that read-out and setting: to RNKSVVPHVLRELCFMVWLV belongs “inactive”; to QSSMLHL, “inactive”.
In the case of GRVPLPCICDRWYYLEGWEV, the amyloid nucleation score was -0.034 ± 0.96.
In turn, IKNHIIVRIDFGLYGEEKDS yielded an amyloid nucleation score of 0.399 ± 0.19.
With FVGVYKMGFASCSMSGSGWV, the amyloid nucleation score result is “inactive”.
Same read-out and setting: to GIMMSD belongs “inactive”; to VFVKLQHVGMSLGSFFPGSM, 0.85 ± 0.19.
The same measure, in the same setting: to ICTVNMTNQSEC belongs “inactive”; to FSISKLGCCYVTAMVVSASR, “inactive”.
On the same count and under the same terms, to QRKTYRTVEHGMHSSSNL belongs “inactive”.
For KIICRAWYMSVGERRA, the amyloid nucleation score was -0.449 ± 1.4.
On the same count and under the same terms, to LTTESNLHVCVRRVGQLHLA belongs “inactive”.
Still for that read-out and setting: to NNCVGCPCFSYRS belongs 3.04 ± 0.072; to FSYVPQAILYLCLYYNVVHT, “inactive”.
On the same count and under the same terms, to QKIPRDDEPMANQDRLSKIS belongs “inactive”; to DWNYNTLQLSSPVGAGLTKN, “inactive”.
On to VYFGSINYRRGGGYGYHSVI, for which the amyloid nucleation score is 0.027 ± 0.71.
Same read-out and setting: to ISQLIEHRRAESCLRPKGRQ belongs “inactive”; to LIYMLCYFRLLPTCGQVINR, “inactive”; to GIEADYSYMSGEGKAVCSSM, “inactive”.
Same read-out and setting: to VYCSSVSCLEVWCGPLHTVR belongs 1.53 ± 0.081; to VVWQTHQVHMVMYERVCTWD, “inactive”.
On the same count and under the same terms, to RYVQLCADYSHGF belongs “inactive”; to YNMTLTYLRLLGAGSIISCL, “inactive”; to LSSMWWLVRFYNFAF, “inactive”.
CSGLSDLSVTLNCYVNCIFL displayed an amyloid nucleation score of 2.48 ± 0.077.
Same read-out and setting: to KEQDTQSIAQCNKTHRA belongs “inactive”.
On the same count and under the same terms, to LENRSFNMMMFV belongs “inactive”.
Consider FSAGGVPYYICYSCIAKFRL, for which the amyloid nucleation score entry was “inactive”.
On the same count and under the same terms, to AAVHWSTIYYSLGMVKDEGG belongs “inactive”; to KISETGRCNSLCW, “inactive”; to CFSDGPLRVHSIGQRWLRCR, “inactive”.
Same read-out and setting: to GFSNFQEVVGILYCQFWVLL belongs 1.33 ± 0.075; to SVYSITSCMHGVAQSEVMFD, 1.1 ± 0.16.
Consider EMRSFVGNSCI, for which the amyloid nucleation score is -0.613 ± 1.5.
Take EKMDLPRAYGDIRTPKEVVR: the amyloid nucleation score was 0.788 ± 0.12.
Turning to FSNDFFCLCPS, the amyloid nucleation score entry was “inactive”.
The same measure, in the same setting: to NMTTGYGAMGFRVVEAWFGC belongs 1.13 ± 0.11; to RGMYMRYLGFLDHLNLRVFC, “inactive”.
On the same count and under the same terms, to CYCPHPNGESFCFSVSWDTN belongs “inactive”.

These data come from the supplement of paper PMC12042874.
